Laboratory results as given in the DeepSol protein solubility set.

assay: soluble on expression in E. coli; label from the status in PepcDB or PDB records

| Sequence | soluble on expression in E. coli |
| --- | --- |
| MQQEEPNKYVKELTQEKYKYGFTTEVHTDVIERGLNEDVVRLISSKKDEPEWLLEFRLKAYRHWLTLEMPTWAHLRIPEIDYQAISYYADPTKKKEGPKSMDEVDPELIKTFNKLGIPLEEQMALSGMAVDAVMDSVSVKTTFKETLMEKGIIFCSFSEAVREHPDLVKKYMGSVVGYRDNFFAALNSAVFSDGSFVYIPKGVRCPMELSTYFRINARNTGQFERTLIVADDDSYVSYLEGCTAPMRDENQLHAAIVEIVVHDRAEVKYSTVQNWYPGDAEGKGGVYNFVTKRGNCKGVDSKLSWTQVETGSAITWKYPSCILTGDNSTAEFYSVAVTNNYQQADTGTKMIHLGKNTRSTIVSKGISAGHSENSYRGLVRVAEKADNARNYSQCDSLLLGDKCGAHTFPYMDIHNETAVVEHEATTSKISEDQIFYCNQRGIPTEDAIGLIVNGYAKEVLNKLPMEFAVEAQKLLTISLEGSVG | not soluble |
| MQQINFYRQRVAINVLAKDIANAKAIYEAAEGHAVIGVLSAQFATVEEGVPEVKRWMAEVPSISVGLGAGDPAQYYKAAMIAAHTHPAHVNQTFTGSGFAAGALAATGGEQTHINALVSPTGTPGEVVISTGVSSSQGTPARVSCEAAVRMMQDMGAHAAKFFPMGGEKSLPELYALATTAARHGMTLIEPTGGISLDNFGIILQTCLEAGVPRVMPHVYSSIIDPQTGNTRPEDIIRLMEIVKALV | not soluble |
| MQQQILERIEDCYQQAEAYFKRAFPRPTTQFTLRGRSAGTAHLQQNRLRFNPVLLRENSEAFLAEVVPHEISHLLCFQIFGKTKPHGREWQSIMLKLFKISPNTTHNFDTQSVKGKDVEYRCACGPIRLGIRRHNKVLRGETRYLCKRCHTHLTLALEHHHHHH | not soluble |
| MQQQVAPVPVIGVTADVLQMQANMKSLKSQLTNAPYGDSPLLKYNANPEIDGKSSPASTQRQLRFLAAKKGALSSSSDAQDSSFIIPPISKVMSDLSPAVTRSADVTKDLNYTSKEAPPSLARGLRNSTFNPNMSLTNRSVHESSALDKTIDSALDASMNGTSNRLGVRGSVRRSNLKQLDMSLLADSSRVGRESRVADPDALPRISESERRQDVVTSTPAVDPVQAVIQRHNDRNRDPPSLNLDTTCDEHTGLEPVSAATSSAASVVSTPSEETVNVNSAAGVKLTKPDYFSLPTINEMKNMIKNGRVVLEDGLTVGRSSYGSVYWPGRVELKDVALDEIVVFRHREVTVYPNEEEKAPEGQELNRPAEVTLERVWYTDKKTKKEVRDVVKLSEIGWREHLERQTIRMGAAFKDFRAETGSWVFRVDHFSKYGLADDDEPMDGSPPQQALQASSPLQVIDMNTSARDVNNQVQRKKVHKATDAHHQEIILERVPAPAALGDVVPIIRRVNRKGLGGGTLDDSREESCIGNMTTEFNESGHDSIIEEGQQPEKKPKLELLADLEYESSRFIRNLQELKVMPKANDPAHRFHGGGHSAKMIGYGKSKLIDIGIVKGRSSHVGWSETGCLVWSAQPRHNQVLFGTIDRTSDVNENTLISMLDVNVHVSETSRKGPSSQSNSVKSSLTSNFVTYSDSYSSMFAKYIDVAQAGGYDGHVSVWKLISALFPYERREGWSFERGEEIGEWLRTEAVKSVPDDRSADTSSNGVWNQLCLGDIDKAFQIAIDNNQPQLATMLQTSAVCPEATVHCFKAQLDNWKKCETLHLIPKETLKCYVLMSGLSHYEWDQDGKNHSINCLDGLNWIQALGLHVWYLRAWTGLEESYDAYQKDVNAGRAASNRGDLPGELIKLACESQHSVEVVLDCAAGENPNDYFLQWHVWSLLYSVGYRTMSKTSETRLHRNYSSQLEASSLSKYALFVLQHIDDDEERSTAVRSLLDRIARFTDNDMFDSISEQFDIPSEWIADAQFSIAKSVDDSTQLFELAVAAKNYLEICRLFVDDIAPTAVVAGDHDALKAACAMVRPFENQIPEWGATGMVYTDYCRLINLIENDAEEELLQDVLESLETRLHAPTISKNSLQKLSLQTIGRVLFEYRADKNTLPEWTKLLGHRQMFKIFRDRSSWGIERFTIEFD | not soluble |
| MQQVFNVSVPVPDDVVIISKEEYLNLLSDNEQGKWWDIDNLQELLGIGRSKLINDILLNPDIKKEVDLSINPNGFIVYPKGKGSRYKILATKARKYFEDNFGS | not soluble |
| MQRGLLVLHASAIAAAGKGAIFMGDKGAGKSTTASALIRAGHELLTDDVVALDLARPDAPMIVAGFPQIKLAADAAAAISLGRAEVRPQVHPAIEKMQHRLHGAFSGGMVPATRIYVLERGLEHHHHHH | not soluble |
| MQTPHILIVEDELVTRNTLKSIFEAEGYDVFEATDGAEMHQILSEYDINLVIMDINLPGKNGLLLARELREQANVALMFLTGRDNEVDKILGLEIGADDYITKPFNPRELTIRARNLLSRTMQ | soluble |
| MQVSIVNEHKYRELEPLNEMLVKRGGVKMIPEPKFVISGLVDNEEYVIKLRIDLADEFRYSYQNQQWTPFAPSTKNSKLSAITETEHRKETGATWNMRIVQFDKLLITREFNDIQRNVIHVEPNHKYIPVLTIQNVTTGKSTEFQFQQMEFIAVKSYQSARIRHTKRAPRKMNLAPGSSQKPQLIVPDILHSPTYGFTAAPPPFPFEYWLLYPQIQYQIQQLAYSLPMGPPMVPIHHIQCTEASQRVYAPEYGWNSILMPGAHKEQDDHYMFHHEIWAPQDHELEKLHVLTEQKNKPSETPQ | not soluble |
| MQYGAIVVTFNRKQLLIESITALLNQTVPPAKIIIIDNHSTDGTKAELQTADILANPSVDYRYLTKNIGGAGGFARGMQIAAADPNLDWASMSDDDAIFEPDYFEKLIAYQQDHPNRQILTGSVYIEDGRLQADQRNRFTNWSTFQAQAVPEREYRGNFEFDQYTFCGVFMSVAVIKQVGVADAGYFIWWDDCEYAVRTAKLSRPVNVSAAKLIHKTALPSLDFKSKFVPDWRLYYGQRNRLITIKRWRANSLVSLGWLLGFYARLAIQLCGPFYRGYRKMVIRVYLEALRDASREREGLNPNFMPGQKFLEHHHHHH | soluble |
| MRAAQALPQTAHVSHFGHGPRLVLALHCTIAHSGAWKGLTRILGEEAQFTAPDMLSHGRSPDWDGQGCFQDRILGIARTCLTEAPMDVIGHSFGATVALRLAVEHPERVRSLTLIEPVFFAVARQDAPELIDSHASDAQPYLDALAAGDHALAARLFNRMWSTADSPRWPDLPEATRAAMIRGIHVVPTMDAALFDDTAGLLAPGRLDRAAMPVLLLRGALTHPVMQAISMGLQRRLPDAVEMVIEGAGHMLPITHPDETAAHIRALWSRTG | not soluble |
| MRAILILLDGLGDRASEILNNKTPLQFAKTPNLDRLAENGMCGLMTTYKEGIPLGTEVAHFLLWGYSLEEFPGRGVIEALGEDIEIEKNAIYLRASLGFVKKDEKGFLVIDRRTKDISREEIEKLVDSLPTCVDGYKFELFYSFDVHFILKIKERNGWISDKISDSDPFYKNRYVMKVKAIRELCKSEVEYSKAKDTARALNKYLLNVYKILQNHKINRKRRKLEKMPANFLLTKWASRYKRVESFKEKWGMNAVILAESSLFKGLAKFLGMDFIKIESFEEGIDLIPELDYDFIHLHTKETDEAAHTKNPLNKVKVIEKIDKLIGNLKLREDDLLIITADHSTPSVGNLIHSGESVPILFYGKNVRVDNVKEFNEISCSNGHLRIRGEELMHLILNYTDRALLYGLRSGDRLRYYIPKDDEIDLLEG | not soluble |
| MRAKKRKFLQKEELSKLLQSLDMSQIGFGWFVMLAAKTGMRYAEALAITPADFDWTAQTISINKTWDYKYNKGFAKTKTLSSVRTIKIDWQIVGQFKPLIKDFPEDEPIFVEKFGDGTYKRQFNSTINNFLAVKCNETGITQISFHALRHTHASVLLAEGVSIHTISARLGHADVGVTQETYAHVLDELQKKDDQKMLSVLMQIALEHHHHHH | not soluble |
| MRAVLGGEDDGGVGLRVIDNNEVSHGISVNFDGEITYHEQDGYPDDPSERTRAGNIHVNQARRFAKYWVYRKRGYDTIPPTENPDRIIAAAIALTPLEPETAETHLGDFYQHFQSINGTADSPVEMPEGVPEQGGGTVYQKDIYVGLEDETLGTIAADLLADPKLMELVGKSVGVGGESLVGAEYVPTFKELIAEASDRDSDSLPSLSEGLLLEATSGIHVHWDDPPGEYHTQWGDQPDLGRDPAARIEIFPFEPDSITELQAQVARHLLCQIRDCYLTMGIAPPEQFRILGHGRHEATGLYASYDIYDEYFDPNAEIDTWYVENTPEGAYEHEPANKNVQTKA | not soluble |
| MRCPRCHHNNSRVIDSRQADDGRAIRRRRECENCSYRFTTFERIEAAPLLVIKKNGDREEFNRDKILRGLIRSAEKRPVAMEQMVQIVDNVENRVRSLGENEVSTTLIGEYVMEDLVNLDEIAYIRFASVYRQFKDMSVFLKELQDIVDKAKSSSPDSEN | not soluble |
